Experimental data as given in US9790551B2, “Use of TRPC6 mRNA levels in peripheral blood cells for early detection/diagnosis of senile dementia” (Aging Wise Biotechnology, Inc., priority 2013, dated 2017).

Experiments:
Format in all cases: cell-based
[1] = test system: γ-secretase cleavage of C99; experiment: C99-GVP/UAS-luciferase reporter assay with TRPC6 plasmid; details: Table 3; luciferase activity, lysed 24 hours after transfection; empty vector = 1
Description: HEK293APP were transfected with C99-GVP/UASLuciferase, CTRL or TRPC6 plasmids, and were lysed 24 hours later. The luciferase activities were determined using the Luciferase assay system (purchased from Promega). β-gal was co-transfected to normalize the transfection efficiency.

[2] = test system: γ-secretase cleavage of Notch; experiment: NICD immunoblotting after co-transfection of TRPC6 and Notch plasmids; details: immunoblotting 48 h after transfection, 1 ug TRPC6 and 1 ug Notch plasmids
Description: Cells were passaged in 12-well plate till the density approached 80%. Each well was transfected with 1 ug of TRPC6 and 1 ug of Notch plasmids using Lipofectamine 2000. Immunoblotting was used to examine the expression of Notch protein 48 h later. Wherein, NICD (notch intracellular domain) is the intracellular fragment produced by γ-secretase cleavage of Notch ΔE-myc, reflecting the level of γ-secretase cleavage of Notch.

[3] = test system: Aβ levels in HEK293APP stable cells; experiment: Aβ ELISA of culture medium, HEK293APP stable cells transfected with TRPC plasmids; details: Table 1; HEK293APP stable cell, 1 ug plasmid, medium ELISA after 48 hr; empty vector = 1
Description: (§1) Upon collecting the culture medium of the cells, Aβ40 and Aβ42 levels were quantified with sandwich ELISA kit, respectively (purchased from Invitrogen). The forebrain of the mouse was dissected and separated, and then homogenized with GuHCL. After that, total Aβ was determined by ELISA. For determining TBST(Tris-Buffered Saline and 1% TritonX100, 1% SDS, 1% DOC) soluble and insoluble Aβ, upon TBST homogenation and centrifugation of the forebrain of the mouse, the supernatant was determined for TBST soluble Aβ by ELISA, and the precipitate was determined for TBST insoluble Aβ by ELISA upon another GuHCL homogenate.
(§2) HEK293APP stable cell line was cultured in DMEM culture solution (containing 200 ng/ml G418) with 10% FBS. C0S7C99 cells were cultured in MEM/F12 culture solution (containing 0.4 ug/ml hygromycin B) with 5% FBS, 1% NEAA, and 200 mM Glutamax. All the transfection was conducted by using Lipofectamin 2000 (Invitrogen).
HEK293 cells were inoculated to 60 mm dishes. When the density was close to 80%, 4 ug APP plasmid was transfected with Lipofectamine 2000. After 4 h, the culture medium was replaced and 400 ng/ml of G418 was added. Cells were passage 2 days later and G418 in the culture was maintained at 400 ng/ml. After 2-3 weeks, the cells not transected died gradually, and the survived cells were HEK293 cells expressing APP. Then, G418 was reduced to and maintained at 200 ng/ml.
TRPC6 or TRPC5 was overexpressed in HEK293APP stable cell lines respectively (Cells were passaged into 12-well plates till the densities were close to 80%. Each well was transfected with 1 ug plasmid using Lipofectamine 2000, and the Aβ levels in the medium were determined with ELISA after 48 hr).
Afterwards, HEK293APP stable cells were passaged in 12-well plate till the density approached 80%. Each well was transfected with lug plasmid using Lipofectamine 2000, and the Aβ levels in the culture medium were determined with ELISA after 48 h. The targeting fragment was primarily narrowed down to 437-507aa.
The […] of TRPC6 contains the first transmembrane regions(TM1), the first extracellular loop (Loop1), and the second transmembrane regions (TM2). To further narrow down the active domain, we constructed 3 variant plasmids, with TM2 region replacement by TM1 region (C6-mut1), reversal of TM2 sequence (C6-mut2) or point mutations within TM2 region(C6-mut3). Then HEK293APP stable cells were passaged in 12-well plate. When the density was close to 80%, every well was transfected with lug plasmid using Lipofectamine 2000, and the Aβ levels in the medium were determined with ELISA after 48 h. The active fragment was further narrowed down to 487-507aa.

[4] = test system: γ-secretase cleavage of C99; experiment: Aβ ELISA, COS7-C99 stable cells overexpressing TRPC6; details: Table 3, 1 ug plasmid, 48 h, empty vector = 1
Description: as §1, §2
C0S7C99 cells overexpressing TRPC6 were obtained by cell-transfection through general method 9 (n=5). The cells were passaged in 12-well plate till the density approached 80%. Each well was transfected with 1 ug plasmid using Lipofectamine 2000, and the Aβ levels in the culture medium were determined with ELISA after 48 h.

B1: TRPC6: transient receptor potential canonical 6 protein, overexpressed from plasmid; SEQ ID NO.:5 (protein, listed as Mus musculus)
chain: MSQSPRFVTRRGGSLKAAPGAGTRRNESQDYLLMDELGDDGYPQLPLPPYGYYPSFRGNENRLTHRRQTILREKGRRLANRGPAYMFNDHSTSLSIEEERFLDAAEYGNIPVVRKMLEECHSLNVNCVDYMGQNALQLAVANEHLEITELLLKKENLSRVGDALLLAISKGYVRIVEAILNHPAFAEGKRLATSPSQSELQQDDFYAYDEDGTRFSHDVTPIILAAHCQEYEIVHTLLRKGARIERPHDYFCKCTECSQKQKHDSFSHSRSRINAYKGLASPAYLSLSSEDPVMTALELSNELAVLANIEKEFKNDYRKLSMQCKDFVVGLLDLCRNTEEVEAILNGDAETRQPGDFGRPNLSRLKLAIKYEVKKFVAHPNCQQQLLSIWYENLSGLRQQTMAVKFLVVLAVAIGLPFLALIYWCAPCSKMGKILRGPFMKFVAHAASFTIFLGLLVMNAADRFEGTKLLPNETSTDNARQLFRMKTSCFSWMEMLIISWVIGMIWAECKEIWTQGPKEYLFELWNMLDFGMLAIFAASFIARFMAFWHASKAQSIIDANDTLKDLTKVTLGDNVKYYNLARIKWDPTDPQIISEGLYAIAVVLSFSRIAYILPANESFGPLQISLGRTVKDIFKFMVIFIMVFVAFMIGMFNLYSYYIGAKQNEAFTTVEESFKTLFWAIFGLSEVKSVVINYNHKFIENIGYVLYGVYNVTMVIVLLNMLIAMINSSFQEIEDDADVEWKFARAKLWFSYFEEGRTLPVPFNLVPSPKSLLYLLLKFKKWMCELIQGQKQGFQEDAEMNKRNEEKKFGISGSHEDLSKFSLDKNQLAHNKQSSTRSSEDYHLNSFSNPPRQYQKIMKRLIKRYVLQAQIDKESDEVNEGELKEIKQDISSLRYELLEEKSQNTEDLAELIRKLGERLSLEPKLEESRR
For B1, which C99-GVP/UAS-Luciferase reporter system [1] is on record?
Its C99-GVP/UAS-Luciferase reporter system is 0.4650 ± 0.02628.

What about the “NICD level (γ-secretase cleavage of NotchΔE-myc)” value [2] of the same molecule?
The value was “did not affect NICD level”.

And the Aβ40 [3]?
The Aβ40 was 0.6839 ± 0.07359.

And the Aβ42 [3]?
Its Aβ42 is 0.6734 ± 0.06994.

What about the Aβ40 [4] of the same molecule?
The Aβ40 was 0.5949 ± 0.06435.

What about the Aβ42 [4] of the same molecule?
Its Aβ42 is 0.5805 ± 0.04428.
